According to the supplement of paper PMC9112550, “Optimization of the antimicrobial peptide Bac7 by deep mutational scanning” (BMC Biology, 2022):

Test system: Escherichia coli TOP10
Experiment: shrunken log2 fold change of peptide-encoding DNA abundance (4.5 h post-induction vs induction); higher = less antimicrobial activity (less host growth inhibition)
Settings: time post-induction: 4.5 h; library: site-saturation at positions 5, 18, 19, 20
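Further: peptides expressed intracellularly from a pBAD plasmid library in pooled LB shake-flask culture, induced with 0.3% L-arabinose, DNA abundance read by NGS, three biological replicates, DESeq2 with apeglm shrinkage.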

| Sequence | shrunken log2 fold change |
| --- | --- |
| RRIRGRPPRLPRPRPRPNIHPRP | 0.0679 |
| RRIRGRPPRLPRPRPRPNITPRP | 0.315 |
| RRIRGRPPRLPRPRPRPNIWPRP | 0.373 |
| RRIRGRPPRLPRPRPRPNKLPRP | -0.096 |
| RRIRGRPPRLPRPRPRPNLMPRP | 0.144 |
| RRIRGRPPRLPRPRPRPNMFPRP | 0.351 |
| RRIRGRPPRLPRPRPRPNMRPRP | 1.08 |
| RRIRGRPPRLPRPRPRPNNFPRP | 0.291 |
| RRIRGRPPRLPRPRPRPNNMPRP | -0.317 |
| RRIRGRPPRLPRPRPRPNNRPRP | -0.112 |
| RRIRGRPPRLPRPRPRPNPNPRP | 0.215 |
| RRIRGRPPRLPRPRPRPNRAPRP | 0.43 |
| RRIRGRPPRLPRPRPRPNSMPRP | 0.0537 |
| RRIRGRPPRLPRPRPRPNSTPRP | 0.344 |
| RRIRGRPPRLPRPRPRPNTCPRP | 0.103 |
| RRIRGRPPRLPRPRPRPNTMPRP | 0.0452 |
| RRIRGRPPRLPRPRPRPNWCPRP | -0.0123 |
| RRIRGRPPRLPRPRPRPNWFPRP | 0.469 |
| RRIRGRPPRLPRPRPRPNWMPRP | -0.194 |
| RRIRGRPPRLPRPRPRPNYWPRP | -0.115 |
| RRIRGRPPRLPRPRPRPPACPRP | 1.36 |
| RRIRGRPPRLPRPRPRPPAPPRP | 1.6 |
| RRIRGRPPRLPRPRPRPPCFPRP | 0.456 |
| RRIRGRPPRLPRPRPRPPDIPRP | 0.514 |
| RRIRGRPPRLPRPRPRPPFKPRP | 0.659 |

| Sequence | shrunken log2 fold change |
| --- | --- |
| RRIRGRPPRLPRPRPRPPHWPRP | 0.96 |
| RRIRGRPPRLPRPRPRPPINPRP | 0.21 |
| RRIRGRPPRLPRPRPRPPIPPRP | 0.449 |
| RRIRGRPPRLPRPRPRPPKCPRP | 1.63 |
| RRIRGRPPRLPRPRPRPPLNPRP | 0.789 |
| RRIRGRPPRLPRPRPRPPLQPRP | 0.641 |
| RRIRGRPPRLPRPRPRPPLTPRP | 0.971 |
| RRIRGRPPRLPRPRPRPPLWPRP | 1.09 |
| RRIRGRPPRLPRPRPRPPMLPRP | 0.555 |
| RRIRGRPPRLPRPRPRPPNEPRP | 0.947 |
| RRIRGRPPRLPRPRPRPPNFPRP | 0.0696 |
| RRIRGRPPRLPRPRPRPPNWPRP | 0.862 |
| RRIRGRPPRLPRPRPRPPPAPRP | 1.57 |
| RRIRGRPPRLPRPRPRPPPKPRP | 1.7 |
| RRIRGRPPRLPRPRPRPPQLPRP | 0.824 |
| RRIRGRPPRLPRPRPRPPSAPRP | 1.07 |
| RRIRGRPPRLPRPRPRPPSEPRP | 0.856 |
| RRIRGRPPRLPRPRPRPPTGPRP | 0.741 |
| RRIRGRPPRLPRPRPRPPTHPRP | 0.617 |
| RRIRGRPPRLPRPRPRPPVAPRP | 1.22 |
| RRIRGRPPRLPRPRPRPPVPPRP | 0.82 |
| RRIRGRPPRLPRPRPRPPVRPRP | 0.859 |
| RRIRGRPPRLPRPRPRPPWAPRP | 0.769 |
| RRIRGRPPRLPRPRPRPPWYPRP | 0.26 |
| RRIRGRPPRLPRPRPRPQAFPRP | 0.112 |

| Sequence | shrunken log2 fold change |
| --- | --- |
| RRIRGRPPRLPRPRPRPQCMPRP | 0.403 |
| RRIRGRPPRLPRPRPRPQDCPRP | 0.0863 |
| RRIRGRPPRLPRPRPRPQDFPRP | 0.178 |
| RRIRGRPPRLPRPRPRPQDTPRP | 0.0614 |
| RRIRGRPPRLPRPRPRPQFAPRP | 0.273 |
| RRIRGRPPRLPRPRPRPQFCPRP | 0.719 |
| RRIRGRPPRLPRPRPRPQFKPRP | 0.0112 |
| RRIRGRPPRLPRPRPRPQGNPRP | 0.236 |
| RRIRGRPPRLPRPRPRPQHCPRP | 0.0523 |
| RRIRGRPPRLPRPRPRPQHKPRP | -0.00366 |
| RRIRGRPPRLPRPRPRPQHLPRP | -0.054 |
| RRIRGRPPRLPRPRPRPQHTPRP | 0.588 |
| RRIRGRPPRLPRPRPRPQITPRP | 0.25 |
| RRIRGRPPRLPRPRPRPQIVPRP | 0.12 |
| RRIRGRPPRLPRPRPRPQKKPRP | 0.0788 |
| RRIRGRPPRLPRPRPRPQLTPRP | 0.644 |
| RRIRGRPPRLPRPRPRPQMEPRP | 0.473 |
| RRIRGRPPRLPRPRPRPQMHPRP | 0.989 |
| RRIRGRPPRLPRPRPRPQPKPRP | 0.884 |
| RRIRGRPPRLPRPRPRPQRAPRP | 0.466 |
| RRIRGRPPRLPRPRPRPQRNPRP | 0.473 |
| RRIRGRPPRLPRPRPRPQRPPRP | 0.406 |
| RRIRGRPPRLPRPRPRPQSVPRP | -0.199 |
| RRIRGRPPRLPRPRPRPQWAPRP | 0.498 |
| RRIRGRPPRLPRPRPRPQWHPRP | 0.0863 |
